Source: publication PMC11298593, “ArcS from Thermococcus kodakarensis transfers L-lysine to preQ0 nucleoside derivatives as minimum substrate RNAs” (The Journal of Biological Chemistry, 2024)

Assays:
purified protein [1] = substrate: N#Cc1cn([C@@H]2O[C@H](COP(=O)(O)O)[C@@H](O)[C@H]2O)c2nc(N)[nH]c(=O)c12; assay: purified protein; type: biochemical, Thermococcus kodakarensis; conditions: 200 μM lysine co-substrate, pH 7.6, 5 mM MgCl2, 50 mM KCl, no 2-mercaptoethanol, 60 °C, unit μM from text b23 (table heading prints μmol)
purified protein [2] = substrate: NCCCC[C@H](N)C(=O)O; assay: purified protein; type: biochemical, Thermococcus kodakarensis; conditions: 204 μM S. cerevisiae tRNA-Phe-preQ0 co-substrate, pH 7.6, 5 mM MgCl2, 50 mM KCl, 60 °C, labelled compound, unit μM from text b13 (table heading prints μmol)

B1: ArcS and RaSEA complex (ArcS-RaSEA complex) (Thermococcus kodakarensis KOD1) (protein)
chain: MEVIKHEGPGRLGVVRLGDYSFRTPALVGIDFTLSPFNSFFHPKEPGEYDFNLAPSIPLGFYTPDEVIQKAIGRLWSVNYDGFNAFYLPALRRTEYLEEFFKIIDRHNFDAVYLGNSKILIKEYRYFVRILRELRERFPNVMIIADLEPFFYPLAVYLGIDAFDTRSLKLYDFEGKGFTQFSPFLWSNEPNSLDFAREVILLVRKALEEGKLRYLVENFFPTQYNAGILRIADLEHPDYLEKYTPIQKETVYFISDASIRRPEVKRWHERVLERFTPPKNVELLLLFPCSAKKPYSFSRSHTLYRRAVKEALGSGTSKVHELILTSPFGVVPREWEWLAKYDIVVTGHWSEEEIKPAAELLAKTLEKYPEDIPIVAHLDEAYVEIAKLASELSGREIIFTDVKNGTTSHESLRSLTETLREFQIEGTKEDRTYRYFENIRKVFDFYFGVGAGEAILPENGQVKGSKMLRIFVEGQQTGTFTDGVISVTPYGMQRIYDALKSYWVKIDFELRGDVFAVGVEEADPRIRPDDIVGIVRDEKVVGVGKAVLSGEEMVRAKKGVAVKVRKRV
notes: recombinant complex expressed in E. coli, purified aerobically (RaSEA apo, no Fe-S cluster); His x 6-ArcS given for the co-expression; with Archaeosine synthase subunit beta
Km (purified protein [1]): 433.4 ± 6.0 µM
kcat (purified protein [1]): 0.387 ± 0.0617 s⁻¹
Km (purified protein [2]): 40.9 ± 8.7 µM
kcat (purified protein [2]): 0.102 ± 0.0117 s⁻¹
